The record followed here is publication PMC9530591.

Broadly, the stoichiometry N is the number of molecules, sites or subunits per partner or assembly.

The assay deals with HA1-trimer (influenza A virus H1N1 A/California/07/2009). Kind of assay: AUC.

The substance HA1-trimer showed a stoichiometry N of 3.
